Test results from patent US20190276531A1.

Key:
[1] = target: cynomolgus TIM-3 Fc fusion antigen (Sino Biologicals) (cynomolgus monkey (Macaca fascicularis)); experiment: ELISA; EC50 on cynomolgus TIM-3 over EC50 on human TIM-3
[2] = target: cynomolgus TIM-3 Fc fusion antigen (Sino Biologicals) (cynomolgus monkey (Macaca fascicularis)); experiment: ELISA; TIM-3 Fc fusion coated at 1 µg/ml, antibody titrated 2-fold from 1000 nM, HRP secondary

Chain of cynomolgus TIM-3 Fc fusion antigen (Sino Biologicals) (cynomolgus monkey (Macaca fascicularis)) (chain, as listed by the source limits assumed): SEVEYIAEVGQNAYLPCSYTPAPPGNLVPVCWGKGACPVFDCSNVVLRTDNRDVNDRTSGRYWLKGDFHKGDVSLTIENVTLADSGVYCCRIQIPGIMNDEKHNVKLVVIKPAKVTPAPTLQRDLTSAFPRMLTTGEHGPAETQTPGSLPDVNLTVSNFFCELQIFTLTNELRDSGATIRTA

B1: antibody 19416 (antibody, V domains shown)
VH: QVQLVESGPGLVKPSQTLSLTCTVSGGSINSGGYYWSWIRQHPGKGLEWIGYIYYSGSIYYNPSLRSRLTISVDTSKNQFSLKLSSVTAADTAVYYCATPYYYGSGSYGDYWGQGTLVTVSS
VL: DIQMTQSPATLSLSPGERATLSCRASQSVNNYLAWYQQKPGQAPRLLIYDASNRATGIPARFSGSGSGTDFTLTISSLEPEDFAVYYCQQRSNWPITFGQGTRLEIK
[1]
  Ratio Cynomolgus/Human EC50: 47
[2]
  EC50: 9.42 nM
